What was measured:
[1] = target: LI-cadherin ECD (Homo sapiens) (UniProt Q12864); conditions: cited from earlier work
[2] = target: T1, LI-cadherin C-terminally tagged with cyan (LI-CFP) or yellow (LI-YFP) fluorescent protein (UniProt Q9R100 26-827); assay: FRET or BRET; FRET competition: twofold excess of untagged LI-cadherin coexpressed with LI-CFP and LI-YFP in HEK293 cells; acceptor photobleaching; conditions: partners not purified
T1 construct: LI-cadherin (cadherin-17); Two differently tagged copies of the same protein (CFP donor, YFP acceptor), co-expressed for FRET; In the control with EGFR-CFP only the YFP-tagged copy was present; also called LI-cadherin-CFP fusion protein; LI-cadherin-YFP fusion protein; source: HEK293, transfected (FuGENE-6), in living cells; not shown: CFP (on one copy) or YFP (on the other copy), C-terminal, kept
T1 sequence (looked up): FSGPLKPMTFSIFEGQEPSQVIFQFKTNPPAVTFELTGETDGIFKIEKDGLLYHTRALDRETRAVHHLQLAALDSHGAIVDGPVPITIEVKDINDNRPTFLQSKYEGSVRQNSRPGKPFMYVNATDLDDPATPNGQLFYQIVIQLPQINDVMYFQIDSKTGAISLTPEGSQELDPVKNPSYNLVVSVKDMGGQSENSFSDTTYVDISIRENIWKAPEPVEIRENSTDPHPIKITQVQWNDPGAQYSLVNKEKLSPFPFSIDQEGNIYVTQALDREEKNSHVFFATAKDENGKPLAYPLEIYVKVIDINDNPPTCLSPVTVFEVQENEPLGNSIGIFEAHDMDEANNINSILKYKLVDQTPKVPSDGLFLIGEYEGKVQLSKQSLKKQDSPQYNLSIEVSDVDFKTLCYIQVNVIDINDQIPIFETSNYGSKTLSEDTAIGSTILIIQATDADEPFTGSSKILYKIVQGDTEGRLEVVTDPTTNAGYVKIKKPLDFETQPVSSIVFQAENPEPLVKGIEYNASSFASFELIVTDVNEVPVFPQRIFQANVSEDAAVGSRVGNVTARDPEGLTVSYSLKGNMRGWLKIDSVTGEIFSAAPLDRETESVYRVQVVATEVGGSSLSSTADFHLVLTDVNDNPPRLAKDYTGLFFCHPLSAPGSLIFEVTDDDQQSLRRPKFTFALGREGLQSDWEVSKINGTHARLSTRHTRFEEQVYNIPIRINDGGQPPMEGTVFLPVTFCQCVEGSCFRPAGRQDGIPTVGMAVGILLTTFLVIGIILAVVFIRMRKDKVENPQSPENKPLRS

Q: For LI-cadherin ECD (from UniProt Q12864), which Kd [1] is on record?
A: 27 µM

B1: untagged LI-cadherin (natural protein, UniProt Q9R100 26-827, looked up)
chain: FSGPLKPMTFSIFEGQEPSQVIFQFKTNPPAVTFELTGETDGIFKIEKDGLLYHTRALDRETRAVHHLQLAALDSHGAIVDGPVPITIEVKDINDNRPTFLQSKYEGSVRQNSRPGKPFMYVNATDLDDPATPNGQLFYQIVIQLPQINDVMYFQIDSKTGAISLTPEGSQELDPVKNPSYNLVVSVKDMGGQSENSFSDTTYVDISIRENIWKAPEPVEIRENSTDPHPIKITQVQWNDPGAQYSLVNKEKLSPFPFSIDQEGNIYVTQALDREEKNSHVFFATAKDENGKPLAYPLEIYVKVIDINDNPPTCLSPVTVFEVQENEPLGNSIGIFEAHDMDEANNINSILKYKLVDQTPKVPSDGLFLIGEYEGKVQLSKQSLKKQDSPQYNLSIEVSDVDFKTLCYIQVNVIDINDQIPIFETSNYGSKTLSEDTAIGSTILIIQATDADEPFTGSSKILYKIVQGDTEGRLEVVTDPTTNAGYVKIKKPLDFETQPVSSIVFQAENPEPLVKGIEYNASSFASFELIVTDVNEVPVFPQRIFQANVSEDAAVGSRVGNVTARDPEGLTVSYSLKGNMRGWLKIDSVTGEIFSAAPLDRETESVYRVQVVATEVGGSSLSSTADFHLVLTDVNDNPPRLAKDYTGLFFCHPLSAPGSLIFEVTDDDQQSLRRPKFTFALGREGLQSDWEVSKINGTHARLSTRHTRFEEQVYNIPIRINDGGQPPMEGTVFLPVTFCQCVEGSCFRPAGRQDGIPTVGMAVGILLTTFLVIGIILAVVFIRMRKDKVENPQSPENKPLRS
notes: LI-cadherin (cadherin-17), untagged wild type; The expression construct of the untagged protein is not described in the methods; also called LIwt; wild-type LI; source: HEK293, transfected, in living cells (twofold excess, coexpressed with LI-CFP and LI-YFP)
Q: Which “FRET efficiency of LI-CFP/LI-YFP with a twofold excess of untagged LI-cadherin” value [2] does the source give for B1 here?
A: 5.2%

— paper PMC3478510, “LI-cadherin cis-dimerizes in the plasma membrane Ca^2+ independently and forms highly dynamic trans-contacts” (Cellular and Molecular Life Sciences: CMLS, 2012)
